The source of these data is article PMC2893456, “Structural definition and substrate specificity of the S28 protease family: the crystal structure of human prolylcarboxypeptidase” (BMC Structural Biology, 2010).

This data set concerns the molecule itself. The data set can be described thus: crystal structure; 2.8 Å, MIRAS; space group R32, one molecule in the asymmetric unit, dimer formed across a two-fold crystallographic symmetry axis; crystals from 1.8 M ammonium sulfate, 0.1 M HEPES, pH 7.5, 1-2% PEG 400.

B1: human prolylcarboxypeptidase (PRCP) (enzyme)
chain: KNYSVLYFQQKVDHFGFNTVKTFNQRYLVADKYWKKNGGSILFYTGNEGDIIWFCNNTGFMWDVAEELKAMLVFAEHRYYGESLPFGDNSFKDSRHLNFLTSEQALADFAELIKHLKRTIPGAENQPVIAIGGSYGGMLAAWFRMKYPHMVVGALAASAPIWQFEDLVPCGVFMKIVTTDFRKSGPHCSESIHRSWDAINRLSNTGSGLQWLTGALHLCSPLTSQDIQHLKDWISETWVNLAMVDYPYASNFLQPLPAWPIKVVCQYLKNPNVSDSLLLQNIFQALNVYYNYSGQVKCLNISETATSSLGTLGWSYQACTEVVMPFCTNGVDDMFEPHSWNLKELSDDCFQQWGVRPRPSWITTMYGGKNISSHTNIVFSNGELDPWSGGGVTKDITDTLVAVTISEGAHHLDLRTKNALDPMSVLLARSLEVRHMKNWIRDFYDS
modifications: N-linked glycans at Asn 101, 317, 336, 345 and 415 (Asn 47 not glycosylated); disulfide bridges 215-372, 233-310, 264-343, 364-394
notes: prolylcarboxypeptidase (PRCP), human
As to B1, the binding result is listed as “binds”.
